B1: Antiviral innate immune response receptor RIG-I (Homo sapiens), O95786-1 (parent)
chain: MTTEQRRSLQAFQDYIRKTLDPTYILSYMAPWFREEEVQYIQAEKNNKGPMEAATLFLKFLLELQEEGWFRGFLDALDHAGYSGLYEAIESWDFKKIEKLEEYRLLLKRLQPEFKTRIIPTDIISDLSECLINQECEEILQICSTKGMMAGAEKLVECLLRSDKENWPKTLKLALEKERNKFSELWIVEKGIKDVETEDLEDKMETSDIQIFYQEDPECQNLSENSCPPSEVSDTNLYSPFKPRNYQLELALPAMKGKNTIICAPTGCGKTFVSLLICEHHLKKFPQGQKGKVVFFANQIPVYEQQKSVFSKYFERHGYRVTGISGATAENVPVEQIVENNDIIILTPQILVNNLKKGTIPSLSIFTLMIFDECHNTSKQHPYNMIMFNYLDQKLGGSSGPLPQVIGLTASVGVGDAKNTDEALDYICKLCASLDASVIATVKHNLEELEQVVYKPQKFFRKVESRISDKFKYIIAQLMRDTESLAKRICKDLENLSQIQNREFGTQKYEQWIVTVQKACMVFQMPDKDEESRICKALFLYTSHLRKYNDALIISEHARMKDALDYLKDFFSNVRAAGFDEIEQDLTQRFEEKLQELESVSRDPSNENPKLEDLCFILQEEYHLNPETITILFVKTRALVDALKNWIEGNPKLSFLKPGILTGRGKTNQNTGMTLPAQKCILDAFKASGDHNILIATSVADEGIDIAQCNLVILYEYVGNVIKMIQTRGRGRARGSKCFLLTSNAGVIEKEQINMYKEKMMNDSILRLQTWDEAVFREKILHIQTHEKFIRDSQEKPKPVPDKENKKLLCRKCKALACYTADVRVIEECHYTVLGDAFKECFVSRPHPKPKQFSSFEKRAKIFCARQNCSHDWGIHVKYKTFEIPVIKIESFVVEDIATGVQTLYSKWKDFHFEKIPFDPAEMSK

Variants of: B1
Conditions: with MAVS

Variant	effect of a mutation on the interaction
T55I	decreasing interaction strength

— IntAct's records for PubMed 17190814
